In the NTF2 design screens of Basanta et al. (2020):

Test: protease stability score; higher = more stable; yeast display proteolysis, trypsin and chymotrypsin;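 further: relative to predicted unfolded state with 0 unfolded-like and 1 meaning tenfold more protease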

Row | Sequence | protease stability score
1 | SDEEIAAKYMEDELQKSLKTGDEQKFRHLADPNVRSDINGVELIGWELIIKYWREIRSKVEDVRLKRVDVQGDKIHLHGLVDVEINVNGVRTREHLESHFVIVKIDGRWYVHSIEIR | 0.659
2 | SDEEKDAKRAIEIYLRMVETGDEETSKELMDPNVRMHVNGQDVHGRERVAKLFHELSRRIDHHEVRLDRWDVQGDKLIIHTEIIWRVNGVEIRRRTLIIMRKFNGRWYIEELNIE | 0.181
3 | SDEEKESKHMFKIYLDFLRTGNEEQYSEMADPNVRIEVNGVTIHGRELAVKFMKEVRDEMRIHDYRIRHLDVFNGRVHADTEENVEFNGVRFITRTKIHLHIVNGRIKSVREEID | 0.903
4 | SDEEKFFEKLLRDILHLWLTGDEDTFHQLLDPNMRSDVDGVDLHGRETVAKFLKERLKHLGIDHVQLESETAIGDKFFINTTISINGVETKMHLHFRVVNGVVHSLEVKVR | 1.26
5 | SDEEKFMHEMYELILKALHTGDEEFLEHFADPNTRLHINGRERHGRDEMKEFFKKFLDHWRIERFHVRSVEIFDGRVTSDTEIRGNIDGVRSEHRTDINIVIVNGRLKEINIHIE | 0.537
6 | SDEEKHAEEYHRQLTRDIMTGDEHILHELVDPHVLERVDGKDNHGWEEIAHFWVRFKNMRMHIEIHEIRHIGDFVDSDIKIRVVYNGKDITMRVHFHVEKINGRWLTTHIRIK | 0.352
7 | SDEEKIARLALEILIKILLTGDEKMILDNADPDVRLEVNGRQIHGMEWLSKIMTEWRFRDTHVRSVRNINGVVHVDGEQDVNYNGREETVHTHYIIEKVNGVWFLKRVVLH | 1.44
8 | SDEERDANRFIKLWVDAMTTGDWEEISLLLDPNVLLLVGDKTYHGREEFVRIMHELIERVKNIRVEIKHREVQGDKIRVDTVLRVNGRTLREHVVMEKVNGQWVIRSLEFD | 2.3
9 | SDEERDFTRLIRILRDALRTGDEHKLHELLDPHTRIIFDGQHHIGWERILEWADQIDHVHFRMTLHTVDIQGDKLRADLSLDVKIQVDGRTEHRHNVMHITVQKVNGRWRIQELYYK | 1.27
10 | SDEERDSRKAEEKWIRTLETGDERIITELADPNVRLEIGDKTFHGREDFYKFMTYLTRHLRVERFEIKRFDFQGEWIHMKTHINMRVGEFSHHSDTEIVAYKVNGRWVIHNVRVE | 0.831
11 | SDEEREFDIAFHLMRHVERTGDPHDMTKMADPNVRVDINGVEVVGREQLREEMRKLGVKYSHVEDFRTFDGRVILHGTLEINGQRRNTEIYASKINGRWHVEEYRFR | 1.14
12 | SDEEREIEHLARLFLEWWYTGDEDTIMKNADPHVRHDFNGVENIGRERVAEVVVHLIRELRIKSMHLHDIDIQGNKVDMNIELDGTYNGKRRKREMEIELVFINGRIKSSHVTIK | 1.17
13 | SDEERHAEFVSRRILHALRTGDWEILFKMADPNVKSTIGDKHHHGWEIMSDMYKKLWEDLGVKHLDLKRITYVDGVVHIDERIRIGDKTHNVELNFVVIDGVLRSVEVHVR | 1.14
14 | SDEERLLHELLHRVLHKRVTGDEESIWREIDPRARIDVNGRDVHGRDHFFEFIVKWMMHYGINHLEIKNQREIDGRIDVDFHEEVGDKRFHVRIIFHKINGRWHLTQEVFT | 1.19
15 | SDEERLLKEIYRIWIRLFETGDWKEFEQMFDPNVRLIIGDKDLHGMELYSKFMRHFVEHIRFEDHQEHEIRVIGDKIHVHGREVGNVNGKRHRREIEIRLVVVNGVFKSEELRVH | 1.18
16 | SDEERSIKILIDLYRLAQETGDERIMREYADPDMKLDIGDKRDHGWEVLVRMVRHLRFHEIHIEHFEVQGNKMHITVRIDTEVNGQRWILRAHIIVTKFNGKWRIEHREEE | 1.45
17 | SDEETITREYIRILIKMMRTGDESTLTRLADPHVRVDINGKDLHGRESLVEEMHKLIRDLGVERIEVHFRNIHIQGEWIVIHIDLQIGDKRFEVRDIALKIDGRWVHKSIEIQ | 1.33
18 | SDEHDVVRELLEIMEIVWRTGDWREMTKMFDPNTRISYGDKYIVGWEALEVLLKRIDHHTMHEIHFRDVHVQGDKIRLDGEVRFERHVGDYREHVTVDVHIHARKIDGRWINTNIRTH | 0.743
19 | SDEHERLKRFAEEWIRAVITGDFDRLYELMDPHARYHQGDKNHHGRDQIRHFLHRFKNIRIDYHRIELIGDKVHMDGWINYDGKEVETKITVHVIDGRVHIIHVWEI | 1.39
20 | SDEHEWERHLYHVLIHAVNTGDEDLVTEMMDPHVRTDINGVELHGRNELSRQLKEMGIKHLEIEHLDFVGNFLVSQVRVDVNGVDYKSEIIALKINGKWLLSELRLE | 1.04
21 | SDEIEEVKTFVRLFTKDLETGNEEDLKRLADPNTRLDVNGREIHGWKSMEHRYRELMEKYKNLRIEVKIDDIRVQGDKIHIHTTIKLDYDGVDIELSSWLVIHKINGRWFVRSIEME | 0.605
22 | SDEKKRLDDLAMTFLTLWMTGDWDHFARQADPHVRSDINGKELHGREIFVNFLREEMTRLGVDHFELHSVTVIDGKVHFDGEVDVNGVRHKTILWSVIFNGRIKSQEEEIR | 1.15
23 | SDELEEALKWLEELMRLTLTGNWDRLDELVDPNAKEVINGKELHGMHFFRRVLHEIRFTHIDVQDIRLQGNYVEVDLRVEGNIDGRHVDLHTEVILLKVNGRWLHKMRILR | 1.56
24 | SDEMEEYEDFMKRVLEALETGDFREIRHLFDPDVKIHIDGRDIVGRESYTEHVRKWREDLGFDHIHLKIHDVKLFDGQIHVDARLEIRIGDKRDSHNVEFRLHKVDGQWLVRRVHVH | 1.6
25 | SDEQEISEFILRIWLELVLTGDEKMMKKLFDPNTRFEINGVDIHGMESIAEHLLREREEWRSHITLTDREIQGDKVRVHTILKVDINGQHLRHHTRIIIIIINGRIHSIHIRVE | 0.673

Row | Sequence | protease stability score
26 | SDEQEMLTRIIEIFFHAVLTGDEETLIEMLDPHARLDVNGVTVIGMEKIWHHVEEMRFKDTKIHDIDVQGNKMKVDGRLDGQINGREHRFRTIIIIEKINGKWLVKRIIIL | 2.44
27 | SDEQRDVKFMLDQWLRSIETGNEDEIRHLVDPNVRSDINGQTHHGRDEYVRHMVEIRVILESIELHDLRWQGDKIDVDAIVQGTIIVNGRKTRFIERVHLHSVKVNGRWEIKEYRVV | 1.42
28 | SDETKRLEEHLKHRFRSMVTGNEEDISRLMDPNAKLIVGDKEFHGREIVLKLLLRWAHEMRLRHEEVEEIHIIGDYVRINGILHMEVGDKSIEIHTVIIILKIDGRWRDKTEHYG | 0.654
29 | SDEYRRNHDLARDYVELFRTGNEEHLYELADPNTMLHIGEFQSHGREHVYEWLEKIHRHWGWENVEFRLESMQVQGDYATIHGLHKFNGRFIRMDHIIVVINGRMESIRVEIR | 0.397
30 | SDFEEEMKESFRLWVHALMTGDEDLLVELVDPDVRLHVGDKDFHGREHFRRWVHEFILRADHHIIHLRDFDVQGDKLHLHTQVDIKVNGQRHHTRVRIIAIKVDGRWVLTQFDVI | 2.27
31 | SDFEEITRKITEIITRAFFTGDWRQIERLMDPEVRNELTIGDKRIERHGRENLVHLLEEAGIDVIRIRSVEIRFFNGRLEVRIDHEVTINGVHFKTVIVVIMIKIDGRWVVHSWSFHFE | 0.959
32 | SDHDEISHDMFRLWLELHLTGDPKVLADLFDPRVRLILEVGDKRIEVHGREEFERWYREEMRHLRIEHIHIEHVEVQGEKVHAIIEVHTHVNGRRHIHKTHITMDFIDGRFKRMKIDVK | 2.14
33 | SDHDKRVMHIWRAVLESYLTGDEHTLKELIDPNTRFFIGDKEYHGMETFSRYARRMYEHLRFSIEVKHEDAINGRYDTHLTLHWEIGDKTDTYDTRLHLDVYDGVVKRLEIRVH | 1.46
34 | SDHEHMILHYARHVLELWFTGDWEIFEKLADPRAKMTVNGQELHGRESVSKWMHDKKEEIRMRDLRIHHIDVQGDFVILHLRVDFEVNGQRIDTHIEIYILVVNGQLREIEIREK | 0.853
35 | SDHRRLLEELLKIIIKAMMTGDESTLERMFDPNVRINIDGVDDHGWESFDRMFHELRIDHARVEYIDVVNGRARVHTNFEVHFDGRRIHWETEIVVVIVNGRNREVSIIRH | 0.739
36 | SDIDELDRELMEHTLRTIRTGDEETVHRLLDPDARTLINGREYHGREWATKMMSDWNRELGIDHLEIKHVDLINGKVRIDVKITVGDKEFHMTMVYNKVNGKWINHSIHIH | 0.409
37 | SDIDNEADNLLRELSEVHQTGDWKTLLELADPNVQLIVNGRDLHGWEHLARRFTELRIHHVDHRIKHIHSYDGRVDLDGRLHYDGEINGRRDILHHEVSVHTKKIDGRWIISNIQIN | -0.21
38 | SDIEDESEKFVRMFLHSYETGDWKSLREMFDPNARTIIGDKHTHGRELAVELWEDLFKRLGIKHIEVTHVHIRVINGRIDVRIEVHLNQGEFRYHIIIIVHVTKFNGVWLLTEFRIEEK | 1.27
39 | SDIEDHAIEFFSNELWSWHTGDEHDLKKLLDPNARIYINGVEVHGRERVLEDLIENMRRRGVRVNEVRVRDFHIVGNFLHFDVRIKYRVGDKILTYEVRILVLKIDGVWFFSELRIE | 1.55
40 | SDIEEMYRINLEIFEHSQQTGDWRMISHMADPNVRISVGDKEIHGRELFEKHLRDTVEKLGAEVHWELNHVRIQGDKLLVRGHLRIKYGDKHETFDIELYADKVDGKWLIHEIRVD | 1.44
41 | SDKDHLFKWAVRHLLEFTQTGNWEHMEHYLDPNVRLNFHIDGVSIERHGMEFLKKLLRDLSEDAGLDNINVQLHSFEIQGEKVNIHLKETFNGRHHETHNVVFKFDGRWKLTKSEVFFL | 0.913
42 | SDKDKEFEKLFREYLRDLLTGDEESLRRLIDPNARFSYEVGDKTEERHGREEAVRWIIEIRIHSFRLRNSTYIGDKMHLEVESDGQYDGKRRFTEVHIEIILINGRVHEVHVWYV | 1.01
43 | SDKEEEAHRLLELLIHWYRTGDFETWRQLMDPHVRNVVDVNGRELHHHGREEVTDSLRFFWEHLGIKHVHFRHVEVQGDKIKLHGQQRVDGQEHQSDFIFIIVDGRVKFIFIHLR | 0.649
44 | SDLDDMATKLIHEWIHAELTGDFKRIEELIDPHVRIVIEVNGRRIELIGREELRRWLEEWMEEMRHEIKLTHIEVQGEKTHVDTHLVIRAENHSYHHKTSRIFIIINGRMHSIHVHIR | 1.7
45 | SDLDEEARRWLEKHLKNFFTGDWDKFMNNVDPNVRYIVGDKHKIGMESFSKDEKEHRDQYDHLEFRIHHEDTYGEKAVSDMHVTYHINGREIRRRVHLSFLVINGKIKSVRIEFE | 0.469
46 | SDLDEVARHATQLIEEVQQTGDWHTLMRLADPNTRLLIGDKVIHGMTELIRILDELYERWGVSKVKVRLHDVRVQGDKVDVDTRSEFNGREVKVRFIIRKVDGRWHLKSVEEHLD | 1.12
47 | SDLDHQARRALEETFKAFETGDEHTWNRLVDPHVRLNVNGQEFHGMELIREWFKQDRDELRLKTIELKRVSVQGDYVHIDSTYYYEYNGQHRILEVHIHAVKFDGRWVVKRIHIH | 0.662
48 | SDLDHRLRKLAEDLSRILETGNWRLMHKLADPNVKEDINGVEFHGRELLVKWLEDLLKELRVHFRVDHYDIQGNFLRVEITNNVFINGVQKVRDERLEVNMFDGKEKENRVRVE | 0.717
49 | SDLDKLAIKIAKILVKNLETGNEKMLEHLLDPHVKLHIDGVTFIGREEVNKWVKHELDEMRSRWEVHDRRTQGEYAHTDSRMYLHINGKDIEIEVTIIFNVVNGRVTFIEHRIH | 0.084
50 | SDLDQEMKTWLEETIRLLNTGNEEEWTKLADPNARVEIGDKHYHGWESLEELRKIFGVEKIDYRFTRIEVQGEKADSDVRIEVNGRELHVRLIIVVVNGRHKSMRVIFG | 1.99
